From patent US20240158459A1 (KYVERNA THERAPEUTICS, published 2024)

T1: biotinylated-MADCAM-1 antigen (human, UniProt Q13477 19-317, limits assumed, biotinylated (site not stated))
T1 construct: The BLI paragraph says only 'biotinylated-MADCAM-1 antigen'; also called mucosal addressin cell adhesion molecule 1
T1 sequence (looked up): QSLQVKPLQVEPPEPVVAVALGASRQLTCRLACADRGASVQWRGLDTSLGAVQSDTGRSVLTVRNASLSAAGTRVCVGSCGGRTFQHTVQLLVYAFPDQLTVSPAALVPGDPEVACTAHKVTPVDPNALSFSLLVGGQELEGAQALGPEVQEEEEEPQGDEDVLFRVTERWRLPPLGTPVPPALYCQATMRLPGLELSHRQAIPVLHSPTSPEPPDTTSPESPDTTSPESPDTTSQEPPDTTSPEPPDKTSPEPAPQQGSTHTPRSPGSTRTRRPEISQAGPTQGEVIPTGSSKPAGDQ


The binders below were run against T1, biotinylated-MADCAM-1 antigen (assay: BLI, biotinylated MADCAM-1 on streptavidin biosensors, scFv titrated, global 1:1 fit).
Procedure: Binding affinity (KD) of MADCAM-1 scFv antibodies from Table 2 was measured using biolayer interferometry (See also FIG. 6). Streptavidin biosensors were loaded for 5 seconds with 10 Tg/mL biotinylated-MADCAM-1 antigen followed by acquisition of the baseline signal in phosphate buffer saline supplemented with bovine serum albumin and sodium azide. For the association step loaded probes were incubated for 250 seconds with a titration of anti-MADCAM-1 scFv antibodies at concentrations generally between 0 nM and 2 TM. This was followed by a dissociation step in buffer lacking anti-MADCAM-1 scFv for 250 seconds. Experimental data was normalized to a reference probe and high-frequency noise was removed by Savitzky-Golay filtering. On and off-rate constants were determined using a globally fitted 1:1 binding model.

Binder	Kd [µM]	koff [s⁻¹]	kon [M⁻¹ s⁻¹]
MAdCAM1 scFv 2.1 (scFv, Humanized rabbit-derived scFv, VH-(G4S)3-VL) scFv: QVQLLESGGGLVKPGGSLRLSCAASGFSFSSGYYMCWIRQAPGKGLEWVSCIYADSSYTYYASWAKGRFTISRDNAKNSLYLQMNSLRAEDTAVYYCARSNGDYFYGMDLWGQGTLVTVSSGGGGSGGGGSGGGGSDIQMTQSPSSLSASVGDRVTITCQASQSINSWLSWYQQKPGKAPKLLIYRASTLASGVPSRFSGSGSGTDFTFTISSLQPEDIATYYCQSNYYSTSTAFGGGTKVEIK	0.085	0.00602	70800
MAdCAM1 scFv 2.2 (scFv, Humanized rabbit-derived scFv, VH-(G4S)3-VL) scFv: QVQLLESGGGLVKPGGSLRLSCAASGFSFSSGYYMCWIRQAPGKGLEWVSCIYADSSYTYYASWAKGRFTISRDNAKNSLYLQMNSLRAEDTAVYYCARSNGDYFYGMDLWGQGTLVTVSSGGGGSGGGGSGGGGSAIQMTQSPSSLSASVGDRVTITCQASQSINSWLSWYQQKPGKAPKLLIYRASTLASGVPSRFSGSGSGTDFTLTISSLQPEDFATYYCQSNYYSTSTAFGGGTKVEIK	0.329	0.0167	50800
MAdCAM1 scFv 10.7 (scFv, Humanized rabbit-derived scFv, VH-(G4S)3-VL) scFv: EVQLLESGGGLVQPGGSLRLSCAASGIDFSGYHYICWVRQAPGKGLEWVSCIYTVSSGIWYATWAKGRFTISRDNSKNTLYLQMNSLRAEDTAVYYCARDDADVSGYWFDLWGQGTLVTVSSGGGGSGGGGSGGGGSDIQMTQSPSSLSASVGDRVTITCQASQSISNLLAWYQQKPGKAPKLLIYKASTLASGVPSRFSGSGSGTDFTFTISSLQPEDIATYYCQQGITNNGIDHGFGGGTKVEIK	0.0454	0.00108	23800
MAdCAM1 scFv 10.1 (scFv, Humanized rabbit-derived scFv, VH-(G4S)3-VL) scFv: QVQLVESGGGVVQPGRSLRLSCAASGIDFSGYHYICWVRQAPGKGLEWVACIYTVSSGIWYATWAKGRFTISRDNSTNTLFLQMNSLRAEDTAVYYCARDDADVSGYWFDLWGQGTLVTVSSGGGGSGGGGSGGGGSDIQMTQSPSSLSASVGDRVTITCQASQSISNLLAWYQQKPGKAPKLLIYKASTLASGVPSRFSGSGSGTDFTFTISSLQPEDIATYYCQQGITNNGIDHGFGGGTKVEIK	0.103	0.00125	12200
MAdCAM1 scFv 10.2 (scFv, Humanized rabbit-derived scFv, VH-(G4S)3-VL) scFv: QVQLVESGGGVVQPGRSLRLSCAASGIDFSGYHYICWVRQAPGKGLEWVACIYTVSSGIWYATWAKGRFTISRDNSTNTLFLQMNSLRAEDTAVYYCARDDADVSGYWFDLWGQGTLVTVSSGGGGSGGGGSGGGGSAIQLTQSPSSLSASVGDRVTITCQASQSISNLLAWYQQKPGKAPKLLIYKASTLASGVPSRFSGSGSGTDFTLTISSLQPEDFATYYCQQGITNNGIDHGFGGGTKVEIK	1.26	0.00646	5130

Next, values leading:

Kd [µM]	koff [s⁻¹]	kon [M⁻¹ s⁻¹]	Binder
0.0983	0.00114	11600	MAdCAM1 scFv 10.3 (scFv, Humanized rabbit-derived scFv, VH-(G4S)3-VL) scFv: EVQLVESGGGLVKPGGSLRLSCAASGIDFSGYHYICWVRQAPGKGLEWVSCIYTVSSGIWYATWAKGRFTISRDNAKNSLYLQMNSLRAEDTAVYYCARDDADVSGYWFDLWGQGTLVTVSSGGGGSGGGGSGGGGSDIQMTQSPSSLSASVGDRVTITCQASQSISNLLAWYQQKPGKAPKLLIYKASTLASGVPSRFSGSGSGTDFTFTISSLQPEDIATYYCQQGITNNGIDHGFGGGTKVEIK
0.928	0.00259	2790	MAdCAM1 scFv 10.8 (scFv, Humanized rabbit-derived scFv, VH-(G4S)3-VL) scFv: EVQLLESGGGLVQPGGSLRLSCAASGIDFSGYHYICWVRQAPGKGLEWVSCIYTVSSGIWYATWAKGRFTISRDNSKNTLYLQMNSLRAEDTAVYYCARDDADVSGYWFDLWGQGTLVTVSSGGGGSGGGGSGGGGSAIQLTQSPSSLSASVGDRVTITCQASQSISNLLAWYQQKPGKAPKLLIYKASTLASGVPSRFSGSGSGTDFTLTISSLQPEDFATYYCQQGITNNGIDHGFGGGTKVEIK
